The values that follow come from US20190218304A1, “POTENTIATING THE EFFECT OF ATP RELEASE” (INNATE PHARMA, priority 2017, published 2019).

The target of assay [1] is T1, Human CD39-L1, also known as NTPDase2 or ENTPD2 (Homo sapiens, UniProt Q9Y5L3).
T1 sequence (Q9Y5L3 1-472 isoform Q9Y5L3-2): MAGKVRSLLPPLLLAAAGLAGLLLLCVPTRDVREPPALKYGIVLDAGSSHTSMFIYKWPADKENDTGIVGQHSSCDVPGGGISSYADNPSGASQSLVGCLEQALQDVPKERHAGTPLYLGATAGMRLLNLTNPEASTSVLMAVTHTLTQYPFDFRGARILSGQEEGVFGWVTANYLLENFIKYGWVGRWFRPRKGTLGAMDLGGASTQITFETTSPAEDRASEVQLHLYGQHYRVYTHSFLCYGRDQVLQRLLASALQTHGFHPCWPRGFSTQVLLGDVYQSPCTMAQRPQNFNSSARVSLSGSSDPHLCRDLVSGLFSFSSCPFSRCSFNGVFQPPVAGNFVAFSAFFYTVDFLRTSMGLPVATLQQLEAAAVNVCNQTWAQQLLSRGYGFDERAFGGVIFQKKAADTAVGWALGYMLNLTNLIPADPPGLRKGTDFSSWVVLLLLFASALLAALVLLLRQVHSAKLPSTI
The experiment in a line: ELISA titration on CD39-L1. Type of assay: binding. To be noted: coated recombinant protein, OD=450. As to the method: Wells were washed in TBS Tween 20, and further saturated 2H at RT in TBS Blocking buffer. Dose range concentration of primary antibody was incubated in TBS blocking buffer for 2 h at RT. Wells were washed in TBS Tween 20. […] Optical density was measured on Enspire™ at OD=450.

The next assay relates to allogenic CD4 T cells. Nature of the assay: Mixed lymphocytes reaction (MLR) of ATP-activated DC with allogenic CD4 T cells. Type of assay: cell-based, human. To be noted: ATP-activated MoDC, 1 MoDC/4 T cells, 5 days. As to the method: T cells activation and proliferation were analyzed through CD25 expression and Cell Trace Violet dilution by flow cytometry.
Briefly, human monocytes were purified from human healthy blood and differentiated into MoDC in presence of GM-CSF and IL-4 during 6 days. Then MoDC were activated in presence of ATP (Sigma, 0.25-1 mM) during 24 hours and DC activation were assessed by analyzing CD80, CD83 and HLA-DR expression by flow cytometry. […] LPS (Invivogen, 10 ng/ml) was used as positive control. To assess resulting effect of ATP-mediated DC activation on CD4 T cells activation, ATP-activated DC were washed and then incubated with allogenic CD4 T cells (ratio 1 MoDC/4 T cells) for a mixed lymphocytes reaction (MLR) during 5 days. T cells activation and proliferation were analyzed through CD25 expression and Cell Trace Violet dilution by flow cytometry (FIG. 8).

B1: I-394: anti-CD39 antibody, VH SEQ ID NO: 3, VL SEQ ID NO: 4; heavy and light chains SEQ ID NOS: 37 and 38 (antibody)
heavy: EVQLQQSGPELVKPGASVKMSCKASGYTFTDYNMHWVKQSHGRTLEWIGYIVPLNGGSTFNQKFKGRATLTVNTSSRTAYMELRSLTSEDSAAYYCARGGTRFAYWGQGTLVTVSAASTKGPSVFPLAPSSKSTSGGTAALGCLVKDYFPEPVTVSWNSGALTSGVHTFPAVLQSSGLYSLSSVVTVPSSSLGTQTYICNVNHKPSNTKVDKRVEPKSCDKTHTCPPCPAPEAEGAPSVFLFPPKPKDTLMISRTPEVTCVVVDVSHEDPEVKFNWYVDGVEVHNAKTKPREEQYNSTYRVVSVLTVLHQDWLNGKEYKCKVSNKALPSSIEKTISKAKGQPREPQVYTLPPSREEMTKNQVSLTCLVKGFYPSDIAVEWESNGQPENNYKTTPPVLDSDGSFFLYSKLTVDKSRWQQGNVFSCSVMHEALHNHYTQKSLSLSPGK
light: DIVLTQSPASLAVSLGQRATISCRASESVDNFGVSFMYWFQQKPGQPPNLLIYGASNQGSGVPARFRGSGSGTDFSLNIHPMEADDTAMYFCQQTKEVPYTFGGGTKLEIKRTVAAPSVFIFPPSDEQLKSGTASVVCLLNNFYPREAKVQWKVDNALQSGNSQESVTEQDSKDSTYSLSSTLTLSKADYEKHKVYACEVTHQGLSSPVTKSFNRGEC
modifications: Chimeric homo sapiens mus musculus
As to B1, in assay [1], the “binding to CD39-L1 in ELISA” value is “not to any of the human isoforms”. Also, the “T cell proliferation and activation (CD25 expression, Cell Trace Violet dilution) in MLR” value in the assay with allogenic CD4 T cells was “higher T cell proliferation and activation”.
